# Patent US20210292396A1
# How the values were obtained:
# Experiment in all cases: cell-based or functional assay
# [1] = target: Env of HIV isolate 0013095-2.11 (clade C) (HIV)
# [2] = target: Env of HIV isolate 16055-2.3 (clade C) (HIV)
# [3] = target: Env of HIV isolate 191821.E6.1 (clade D) (HIV)
# [4] = target: Env of HIV isolate 231965.c01 (clade D) (HIV)
# [5] = target: Env of HIV isolate 246-F3.C10.2 (clade AC) (HIV)
# [6] = target: Env of HIV isolate 271-11 (clade AG) (HIV)
# [7] = target: Env of HIV isolate 3365.v2.c20 (clade A) (HIV)
# [8] = target: Env of HIV isolate 426c (clade C) (HIV)
# [9] = target: Env of HIV isolate 6405.v4.c34 (clade D) (HIV)
# [10] = target: Env of HIV isolate 6785.v5.c14 (clade C) (HIV)
# [11] = target: Env of HIV isolate BI369.9A (clade A) (HIV)
# [12] = target: Env of HIV isolate BS208.B1 (clade A) (HIV)
# [13] = target: Env of HIV isolate CAP210.E8 (clade C) (HIV)
# [14] = target: Env of HIV isolate CAP244.D3 (clade C) (HIV)
# [15] = target: Env of HIV isolate CE703010217.B6 (clade C) (HIV)
# [16] = target: Env of HIV isolate CH181.12 (clade BC) (HIV)
# [17] = target: Env of HIV isolate CNE3 (clade AE) (HIV)
# [18] = target: Env of HIV isolate CNE5 (clade AE) (HIV)
# [19] = target: Env of HIV isolate CNE58 (clade C in Table 7) (HIV)
# [20] = target: Env of HIV isolate Ce1176.A3 (clade C) (HIV)
# [21] = target: Env of HIV isolate DU422.01 (clade C) (HIV)
# [22] = target: Env of HIV isolate HXB2.DG (clade B) (HIV)
# [23] = target: Env of HIV isolate MB539.2B7 (clade A) (HIV)
# [24] = target: Env of HIV isolate T257-31 (clade AG) (HIV)
# [25] = target: Env of HIV isolate T266-60 (clade AG) (HIV)
# [26] = target: Env of HIV isolate X1632.S2.B10 (clade G) (HIV)
# [27] = target: Env of HIV isolate X2278.C2.B6 (clade B) (HIV)
# [28] = target: Env of HIV isolate ZM106.9 (clade C) (HIV)
# [29] = target: Env of HIV isolate ZM233.6 (clade C) (HIV)
# [30] = target: Envelope protein of SVA.MLV (clade NA)
# [31] = target: HIV Env of isolate 0330.v4.c3 (HIV)
# [32] = target: HIV Env of isolate 247-23 (HIV)
# [33] = target: HIV Env of isolate 25710-2.43 (HIV)
# [34] = target: HIV Env of isolate 3016.v5.c45 (HIV)
# [35] = target: HIV Env of isolate 3415.v1.c1 (HIV)
# [36] = target: HIV Env of isolate 3589.v1.c4 (HIV)
# [37] = target: HIV Env of isolate 6405.v4.c34 (HIV)
# [38] = target: HIV Env of isolate 6785.v5.c14 (HIV)
# [39] = target: HIV Env of isolate 6838.v1.c35 (HIV)
# [40] = target: HIV Env of isolate A07412M1.vrc12 (HIV)
# [41] = target: HIV Env of isolate ADA.DG (HIV)
# [42] = target: HIV Env of isolate BB201.B42 (HIV)
# [43] = target: HIV Env of isolate BJOX009000.02.4 (HIV)
# [44] = target: HIV Env of isolate BX08.16 (HIV)
# [45] = target: HIV Env of isolate CNE56 (HIV)
# [46] = target: HIV Env of isolate JRFL.JB (HIV)
# [47] = target: HIV Env of isolate Q769.h5 (HIV)
# [48] = target: HIV Env of isolate SS1196.01 (HIV)
# [49] = target: HIV Env of isolate TZA125.17 (HIV)
# [50] = target: HIV Env of isolate X1254.c3 (HIV)
# [51] = target: HIV Env of isolate X2088.c9 (HIV)
# [52] = target: HIV Env of isolate YU2.DG (HIV) (UniProt P35961)
# Chain of HIV Env of isolate YU2.DG (HIV) (P35961 32-843 limits assumed): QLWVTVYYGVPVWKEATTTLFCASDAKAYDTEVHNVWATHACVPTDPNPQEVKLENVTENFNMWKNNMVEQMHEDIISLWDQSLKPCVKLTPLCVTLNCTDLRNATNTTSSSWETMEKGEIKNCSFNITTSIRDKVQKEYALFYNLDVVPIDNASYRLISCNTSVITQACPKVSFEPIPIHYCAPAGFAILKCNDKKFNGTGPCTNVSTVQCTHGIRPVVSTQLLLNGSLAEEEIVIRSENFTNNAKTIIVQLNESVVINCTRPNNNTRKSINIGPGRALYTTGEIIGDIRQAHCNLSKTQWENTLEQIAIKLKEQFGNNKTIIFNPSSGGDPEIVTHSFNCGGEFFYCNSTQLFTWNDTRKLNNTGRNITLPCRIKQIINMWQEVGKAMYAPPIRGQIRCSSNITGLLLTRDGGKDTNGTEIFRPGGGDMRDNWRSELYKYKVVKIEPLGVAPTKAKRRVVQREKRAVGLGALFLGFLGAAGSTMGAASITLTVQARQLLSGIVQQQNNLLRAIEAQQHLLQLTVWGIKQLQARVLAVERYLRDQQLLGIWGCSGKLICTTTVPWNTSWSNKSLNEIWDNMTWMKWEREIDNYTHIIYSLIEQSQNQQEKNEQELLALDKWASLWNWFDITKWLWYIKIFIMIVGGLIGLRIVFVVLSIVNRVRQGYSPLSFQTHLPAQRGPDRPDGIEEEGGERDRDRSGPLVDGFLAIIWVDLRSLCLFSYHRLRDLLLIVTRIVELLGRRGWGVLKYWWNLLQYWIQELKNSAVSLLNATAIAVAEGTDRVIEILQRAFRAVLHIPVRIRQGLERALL
substance,measurement,setting,value
PGT121 (antibody),"IC50, pseudovirus neutralization",[1],> 50 µg/mL
same,"IC50, pseudovirus neutralization",[2],0.312 µg/mL
same,"IC50, pseudovirus neutralization",[3],> 50 µg/mL
same,"IC50, pseudovirus neutralization",[4],> 50 µg/mL
same,"IC50, pseudovirus neutralization",[5],> 50 µg/mL
same,"IC50, pseudovirus neutralization",[6],> 50 µg/mL
same,"IC50, pseudovirus neutralization",[7],0.112 µg/mL
same,"IC50, pseudovirus neutralization",[8],> 50 µg/mL
same,"IC50, pseudovirus neutralization",[9],0.042 µg/mL
same,"IC50, pseudovirus neutralization",[10],0.0503 µg/mL
same,"IC50, pseudovirus neutralization",[11],0.0283 µg/mL
same,"IC50, pseudovirus neutralization",[12],> 50 µg/mL
same,"IC50, pseudovirus neutralization",[13],4.28 µg/mL
same,"IC50, pseudovirus neutralization",[14],> 50 µg/mL
same,"IC50, pseudovirus neutralization",[15],0.007 µg/mL
same,"IC50, pseudovirus neutralization",[16],0.0313 µg/mL
same,"IC50, pseudovirus neutralization",[17],> 50 µg/mL
same,"IC50, pseudovirus neutralization",[18],> 50 µg/mL
same,"IC50, pseudovirus neutralization",[19],9.34 µg/mL
same,"IC50, pseudovirus neutralization",[20],0.0243 µg/mL
same,"IC50, pseudovirus neutralization",[21],0.062 µg/mL
same,"IC50, pseudovirus neutralization",[22],> 50 µg/mL
same,"IC50, pseudovirus neutralization",[23],> 50 µg/mL
same,"IC50, pseudovirus neutralization",[24],> 50 µg/mL
same,"IC50, pseudovirus neutralization",[25],0.143 µg/mL
same,"IC50, pseudovirus neutralization",[26],> 50 µg/mL
same,"IC50, pseudovirus neutralization",[27],0.026 µg/mL
same,"IC50, pseudovirus neutralization",[28],0.0127 µg/mL
same,"IC50, pseudovirus neutralization",[29],0.731 µg/mL
same,"IC50, pseudovirus neutralization",[30],> 50 µg/mL
same,IC80,[31],0.211 µg/mL
same,"IC80, pseudovirus neutralization",[32],> 50 µg/mL
same,"IC80, pseudovirus neutralization",[33],0.066 µg/mL
same,"IC80, pseudovirus neutralization",[34],> 50 µg/mL
same,IC80,[35],> 50 µg/mL
same,IC80,[36],> 50 µg/mL
same,"IC80, pseudovirus neutralization",[37],0.136 µg/mL
same,"IC80, pseudovirus neutralization",[38],0.108 µg/mL
same,"IC80, pseudovirus neutralization",[39],0.21 µg/mL
same,"IC80, pseudovirus neutralization",[40],0.208 µg/mL
same,IC80,[41],0.109 µg/mL
same,IC80,[42],0.0243 µg/mL
same,IC80,[43],9.02 µg/mL
same,IC80,[44],0.021 µg/mL
same,IC80,[45],> 50 µg/mL
same,IC80,[46],0.107 µg/mL
same,IC80,[47],> 50 µg/mL
same,IC80,[48],0.0307 µg/mL
same,"IC80, pseudovirus neutralization",[49],9.43 µg/mL
same,"IC80, pseudovirus neutralization",[50],0.106 µg/mL
same,"IC80, pseudovirus neutralization",[51],0.019 µg/mL
same,IC80,[52],0.126 µg/mL
